What was measured:
Test in all cases: SPR
[1] = biological target: AZD8895 (tixagevimab) (human)
[2] = biological target: AZD1061 (cilgavimab) (human)
AZD8895-TM (human) = biological target: AZD8895-TM (human)
AZD1061-TM (human) = biological target: AZD1061-TM (human)

Substance: human neonatal Fc receptor (from UniProt P55899;P61769)
- Kd [1]: 272 nM
- Kd [2]: 283 nM
- Kd (AZD8895-TM (human)): 2400 nM
- Kd (AZD1061-TM (human)): 2360 nM

— paper doi:10.1101/2021.08.30.21262666
